Tests used:
[1] = molecular target: recombinant UBE3A protein (Homo sapiens (Human)) (UniProt Q05086); assay: 3-step Simoa; capture Novus; UBE3A 1 ng/ml
[2] = molecular target: recombinant UBE3A protein (Homo sapiens (Human)) (UniProt Q05086); assay: 2-step Simoa; capture Novus; UBE3A 0.01 ng/ml
[3] = molecular target: recombinant UBE3A protein (Homo sapiens (Human)) (UniProt Q05086); assay: 3-step Simoa; capture Novus; UBE3A 10 ng/ml
[4] = molecular target: recombinant UBE3A protein (Homo sapiens (Human)) (UniProt Q05086); assay: 3-step Simoa; capture MS 2F6; UBE3A 10 ng/ml
[5] = molecular target: recombinant UBE3A protein (Homo sapiens (Human)) (UniProt Q05086); assay: 3-step Simoa; capture MS 2F6; UBE3A 0.1 ng/ml
[6] = molecular target: recombinant UBE3A protein (Homo sapiens (Human)) (UniProt Q05086); assay: 2-step Simoa; capture MS 2F6; UBE3A 0.1 ng/ml
[7] = molecular target: recombinant UBE3A protein (Homo sapiens (Human)) (UniProt Q05086); assay: 3-step Simoa; capture MS 2F6; UBE3A 1 ng/ml
[8] = molecular target: recombinant UBE3A protein (Homo sapiens (Human)) (UniProt Q05086); assay: 2-step Simoa; capture GTX; UBE3A 0.01 ng/ml
[9] = molecular target: recombinant UBE3A protein (Homo sapiens (Human)) (UniProt Q05086); assay: 2-step Simoa; capture Novus; UBE3A 0.1 ng/ml
[10] = molecular target: recombinant UBE3A protein (Homo sapiens (Human)) (UniProt Q05086); assay: 3-step Simoa; capture Novus; UBE3A 0.01 ng/ml
[11] = molecular target: recombinant UBE3A protein (Homo sapiens (Human)) (UniProt Q05086); assay: 3-step Simoa; capture GTX; UBE3A 0.1 ng/ml
[12] = molecular target: recombinant UBE3A protein (Homo sapiens (Human)) (UniProt Q05086); assay: 2-step Simoa; capture GTX; UBE3A 10 ng/ml
[13] = molecular target: recombinant UBE3A protein (Homo sapiens (Human)) (UniProt Q05086); assay: 3-step Simoa; capture GTX; UBE3A 1 ng/ml
[14] = molecular target: recombinant UBE3A protein (Homo sapiens (Human)) (UniProt Q05086); assay: 2-step Simoa; capture MS 2F6; UBE3A 1 ng/ml
[15] = molecular target: recombinant UBE3A protein (Homo sapiens (Human)) (UniProt Q05086); assay: 2-step Simoa; capture GTX; UBE3A 1 ng/ml
[16] = molecular target: recombinant UBE3A protein (Homo sapiens (Human)) (UniProt Q05086); assay: 2-step Simoa; capture GTX; UBE3A 0.1 ng/ml
[17] = molecular target: recombinant UBE3A protein (Homo sapiens (Human)) (UniProt Q05086); assay: 2-step Simoa; capture Novus; UBE3A 1 ng/ml
[18] = molecular target: recombinant UBE3A protein (Homo sapiens (Human)) (UniProt Q05086); assay: 3-step Simoa; capture GTX; UBE3A 0.01 ng/ml
[19] = molecular target: recombinant UBE3A protein (Homo sapiens (Human)) (UniProt Q05086); assay: 3-step Simoa; capture GTX; UBE3A 10 ng/ml
[20] = molecular target: recombinant UBE3A protein (Homo sapiens (Human)) (UniProt Q05086); assay: 2-step Simoa; capture MS 2F6; UBE3A 10 ng/ml
[21] = molecular target: recombinant UBE3A protein (Homo sapiens (Human)) (UniProt Q05086); assay: 3-step Simoa; capture Novus; UBE3A 0.1 ng/ml
[22] = molecular target: recombinant UBE3A protein (Homo sapiens (Human)) (UniProt Q05086); assay: 2-step Simoa; capture Novus; UBE3A 10 ng/ml
[23] = molecular target: recombinant UBE3A protein (Homo sapiens (Human)) (UniProt Q05086); assay: 2-step Simoa; capture MS 2F6; UBE3A 0.01 ng/ml

Sequence of UniProt Q05086 (Q05086 whole entry): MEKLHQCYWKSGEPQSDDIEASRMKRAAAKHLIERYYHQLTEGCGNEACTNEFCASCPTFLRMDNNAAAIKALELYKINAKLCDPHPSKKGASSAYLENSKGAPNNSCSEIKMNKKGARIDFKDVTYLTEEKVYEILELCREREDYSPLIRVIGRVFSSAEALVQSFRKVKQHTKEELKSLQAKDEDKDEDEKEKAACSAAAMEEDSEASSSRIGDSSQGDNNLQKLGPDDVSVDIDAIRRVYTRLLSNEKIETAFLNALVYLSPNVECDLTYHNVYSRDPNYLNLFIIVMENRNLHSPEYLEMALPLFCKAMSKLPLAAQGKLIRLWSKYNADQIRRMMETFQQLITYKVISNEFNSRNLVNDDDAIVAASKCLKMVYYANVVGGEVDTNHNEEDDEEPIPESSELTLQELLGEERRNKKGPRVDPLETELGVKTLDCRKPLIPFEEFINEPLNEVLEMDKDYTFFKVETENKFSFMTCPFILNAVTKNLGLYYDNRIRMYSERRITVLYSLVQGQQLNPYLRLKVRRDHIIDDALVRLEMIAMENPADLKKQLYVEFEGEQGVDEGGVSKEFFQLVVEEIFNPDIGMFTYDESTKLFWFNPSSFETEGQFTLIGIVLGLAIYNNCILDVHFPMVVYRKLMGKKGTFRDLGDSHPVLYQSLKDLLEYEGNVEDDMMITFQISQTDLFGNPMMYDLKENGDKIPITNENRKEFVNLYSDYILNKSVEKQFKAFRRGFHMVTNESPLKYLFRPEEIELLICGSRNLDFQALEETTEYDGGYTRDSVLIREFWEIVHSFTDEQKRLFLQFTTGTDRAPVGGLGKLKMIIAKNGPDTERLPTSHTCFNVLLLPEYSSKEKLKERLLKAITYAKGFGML

NB500-240 (Novus) (antibody)
AEB1 [1]: 0.0125
AEB2 [1]: 0.0145
Ave AEB [1]: 0.0135
Signal to Background [1]: 1.29
AEB1 [2]: 0.0255
AEB2 [2]: 0.0175
Ave AEB [2]: 0.0215
Signal to Background [2]: 1.29
AEB1 [3]: 0.0168
AEB2 [3]: 0.0179
Ave AEB [3]: 0.0173
Signal to Background [3]: 1.65
AEB1 [4]: 0.0153
AEB2 [4]: 0.0116
Ave AEB [4]: 0.0134
Signal to Background [4]: 1.54
AEB1 [5]: 0.0107
AEB2 [5]: 0.0084
Ave AEB [5]: 0.0095
Signal to Background [5]: 1.1
AEB1 [6]: 0.0164
AEB2 [6]: 0.0185
Ave AEB [6]: 0.0175
Signal to Background [6]: 1.06
AEB1 [7]: 0.0095
AEB2 [7]: 0.009
Ave AEB [7]: 0.0092
Signal to Background [7]: 1.06
AEB1 [8]: 0.0082
AEB2 [8]: 0.0072
Ave AEB [8]: 0.0077
Signal to Background [8]: 1.04
AEB1 [9]: 0.0167
AEB2 [9]: 0.0132
Ave AEB [9]: 0.0149
Signal to Background [9]: 0.9
AEB1 [10]: 0.011
AEB2 [10]: 0.0112
Ave AEB [10]: 0.0111
Signal to Background [10]: 1.06
AEB1 [11]: 0.005
AEB2 [11]: 0.0068
Ave AEB [11]: 0.0059
Signal to Background [11]: 0.97
AEB1 [12]: 0.126
AEB2 [12]: 0.13
Ave AEB [12]: 0.128
Signal to Background [12]: 17.3
AEB1 [13]: 0.0097
AEB2 [13]: 0.0091
Ave AEB [13]: 0.0094
Signal to Background [13]: 1.54
AEB1 [14]: 0.0212
AEB2 [14]: 0.0206
Ave AEB [14]: 0.0209
Signal to Background [14]: 1.27
AEB1 [15]: 0.0247
AEB2 [15]: 0.0237
Ave AEB [15]: 0.0242
Signal to Background [15]: 3.26
AEB1 [16]: 0.0089
AEB2 [16]: 0.0108
Ave AEB [16]: 0.0098
Signal to Background [16]: 1.33
AEB1 [17]: 0.0174
AEB2 [17]: 0.0179
Ave AEB [17]: 0.0177
Signal to Background [17]: 1.06
AEB1 [18]: 0.0064
AEB2 [18]: 0.0053
Ave AEB [18]: 0.0059
Signal to Background [18]: 0.96
AEB1 [19]: 0.0356
AEB2 [19]: 0.0426
Ave AEB [19]: 0.0391
Signal to Background [19]: 6.42
AEB1 [20]: 0.0437
AEB2 [20]: 0.0449
Ave AEB [20]: 0.0443
Signal to Background [20]: 2.7
AEB1 [21]: 0.014
AEB2 [21]: 0.0114
Ave AEB [21]: 0.0127
Signal to Background [21]: 1.21
AEB1 [22]: 0.0441
AEB2 [22]: 0.0461
Ave AEB [22]: 0.0451
Signal to Background [22]: 2.71
AEB1 [23]: 0.0183
AEB2 [23]: 0.0162
Ave AEB [23]: 0.0172
Signal to Background [23]: 1.05

anti-UBE3A antibody 3E5 (SAB1404508-100 ug, Millipore-Sigma)
AEB1 [1]: 0.0276
AEB2 [1]: 0.0233
Ave AEB [1]: 0.0254
Signal to Background [1]: 2.68
AEB1 [2]: 0.0302
AEB2 [2]: 0.0257
Ave AEB [2]: 0.028
Signal to Background [2]: 1.12
AEB1 [3]: 0.159
AEB2 [3]: 0.154
Ave AEB [3]: 0.156
Signal to Background [3]: 16.5
AEB1 [4]: 0.177
AEB2 [4]: 0.188
Ave AEB [4]: 0.183
Signal to Background [4]: 46.6
AEB1 [5]: 0.0063
AEB2 [5]: 0.0064
Ave AEB [5]: 0.0063
Signal to Background [5]: 1.62
AEB1 [6]: 0.0169
AEB2 [6]: 0.0141
Ave AEB [6]: 0.0155
Signal to Background [6]: 1.38
AEB1 [7]: 0.0206
AEB2 [7]: 0.0228
Ave AEB [7]: 0.0217
Signal to Background [7]: 5.52
AEB1 [8]: 0.0162
AEB2 [8]: 0.0168
Ave AEB [8]: 0.0165
AEB1 [9]: 0.0237
AEB2 [9]: 0.0272
Ave AEB [9]: 0.0255
Signal to Background [9]: 1.02
AEB1 [10]: 0.0105
AEB2 [10]: 0.0102
Ave AEB [10]: 0.0104
Signal to Background [10]: 1.09
AEB1 [11]: 0.0204
AEB2 [11]: 0.0181
Ave AEB [11]: 0.0192
Signal to Background [11]: 2.25
AEB1 [12]: 0.724
Ave AEB [12]: 0.724
AEB2 [13]: 0.0774
Ave AEB [13]: 0.0774
Signal to Background [13]: 9.06
AEB1 [14]: 0.0424
AEB2 [14]: 0.0451
Ave AEB [14]: 0.0437
Signal to Background [14]: 3.9
AEB1 [15]: 0.152
AEB2 [15]: 0.157
Ave AEB [15]: 0.154
AEB1 [17]: 0.0412
AEB2 [17]: 0.0426
Ave AEB [17]: 0.0419
Signal to Background [17]: 1.68
AEB1 [18]: 0.0084
AEB2 [18]: 0.0082
Ave AEB [18]: 0.0083
Signal to Background [18]: 0.972
AEB1 [19]: 0.404
AEB2 [19]: 0.425
Ave AEB [19]: 0.414
Signal to Background [19]: 48.5
AEB1 [20]: 0.334
AEB2 [20]: 0.338
Ave AEB [20]: 0.336
Signal to Background [20]: 30
AEB1 [21]: 0.0142
AEB2 [21]: 0.0119
Ave AEB [21]: 0.013
Signal to Background [21]: 1.38
AEB1 [22]: 0.174
AEB2 [22]: 0.164
Ave AEB [22]: 0.169
Signal to Background [22]: 6.77
AEB1 [23]: 0.0113
AEB2 [23]: 0.0141
Ave AEB [23]: 0.0127
Signal to Background [23]: 1.13

Source: patent publication US12467929
